Patent US20180161428A1 (HARPOON THERAPEUTICS, published 2018)
Positions count from the first letter of the chain named. In names and notes the source's numbering stands. Blank lines part the entries; values can stand above or below the binder they belong to.

Key:
PSMA-TriTAC (p8)-C362 [1] = molecular target: T1, PSMA-TriTAC (p8)-C362; assay: BLI (Octet), cynomolgus albumin (CSA)
T1 construct: Trispecific single chain: anti-PSMA sdAb, anti-HSA sdAb, anti-CD3 scFv, 6xHis (the tag is part of the entry); also called PSMA p8 TriTAC C362; C00362

PSMA TriTAC (HDS)-C363 [2] = molecular target: T2, PSMA TriTAC (HDS)-C363; assay: BLI (Octet), cynomolgus albumin (CSA)
T2 construct: Trispecific single chain: anti-PSMA sdAb, anti-HSA sdAb, anti-CD3 scFv, 6xHis (the tag is part of the entry); also called PSMA HDS TriTAC C363; C00363

PSMA TriTAC (HTS)-C364 [3] = molecular target: T3, PSMA TriTAC (HTS)-C364; assay: BLI (Octet), cynomolgus albumin (CSA)
T3 construct: Trispecific single chain: anti-PSMA sdAb, anti-HSA sdAb, anti-CD3 scFv, 6xHis (the tag is part of the entry); also called PSMA HTS TriTAC C364; C00364

[4] = molecular target: T4, TriTAC CD3 high aff. - C324; assay: BLI (Octet), cynomolgus albumin (CSA)
T4 construct: Trispecific single chain: anti-PSMA sdAb, anti-HSA sdAb, anti-CD3 scFv, 6xHis (the tag is part of the entry); also called PSMA TriTAC CD3 high aff; C00324

[5] = molecular target: T5, Tool TriTAC high aff. - C236; assay: BLI (Octet), cynomolgus albumin (CSA)
T5 construct: Trispecific single chain: anti-PSMA sdAb, anti-HSA sdAb, anti-CD3 scFv, 6xHis (the tag is part of the entry); also called Tool PSMA TriTAC; C00236

PSMA TriTAC (HDS)-C363 [6] = molecular target: T2, PSMA TriTAC (HDS)-C363; assay: BLI (Octet), cynomolgus PSMA
PSMA TriTAC (HTS)-C364 [7] = molecular target: T3, PSMA TriTAC (HTS)-C364; assay: BLI (Octet), cynomolgus PSMA
[8] = molecular target: T4, TriTAC CD3 high aff. - C324; assay: BLI (Octet), cynomolgus CD3
[9] = molecular target: T5, Tool TriTAC high aff. - C236; assay: BLI (Octet), cynomolgus CD3
PSMA-TriTAC (p8)-C362 [10] = molecular target: T1, PSMA-TriTAC (p8)-C362; assay: BLI (Octet), cynomolgus CD3
PSMA TriTAC (HDS)-C363 [11] = molecular target: T2, PSMA TriTAC (HDS)-C363; assay: BLI (Octet), cynomolgus CD3
PSMA TriTAC (HTS)-C364 [12] = molecular target: T3, PSMA TriTAC (HTS)-C364; assay: BLI (Octet), cynomolgus CD3
PSMA-TriTAC (p8)-C362 [13] = molecular target: T1, PSMA-TriTAC (p8)-C362; assay: BLI (Octet), human CD3-Flag-Fc on anti-human IgG Fc biosensors
PSMA TriTAC (HDS)-C363 [14] = molecular target: T2, PSMA TriTAC (HDS)-C363; assay: as above
PSMA TriTAC (HTS)-C364 [15] = molecular target: T3, PSMA TriTAC (HTS)-C364; assay: as above
[16] = molecular target: T4, TriTAC CD3 high aff. - C324; assay: as above
hFc · flag · hPSMA = molecular target: T6, hFc · flag · hPSMA (human, UniProt Q04609 44-750); assay: BLI (OCTET), expression supernatants, hFc.flag.hPSMA
T6 construct: The order of the parts follows the printed label; also called human PSMA; h PSMA-Fc; not shown: human Fc (hFc); flag tag
From the text: Supernatants were used to estimate Kd, kon, and koff (or kdis) to human and cynomolgus PSMA using the OCTET® system. […] The parental sdAb is listed as Anti-PSMA wt sdAb.6his in Table 1.

T6 sequence (Q04609 44-750 limits assumed): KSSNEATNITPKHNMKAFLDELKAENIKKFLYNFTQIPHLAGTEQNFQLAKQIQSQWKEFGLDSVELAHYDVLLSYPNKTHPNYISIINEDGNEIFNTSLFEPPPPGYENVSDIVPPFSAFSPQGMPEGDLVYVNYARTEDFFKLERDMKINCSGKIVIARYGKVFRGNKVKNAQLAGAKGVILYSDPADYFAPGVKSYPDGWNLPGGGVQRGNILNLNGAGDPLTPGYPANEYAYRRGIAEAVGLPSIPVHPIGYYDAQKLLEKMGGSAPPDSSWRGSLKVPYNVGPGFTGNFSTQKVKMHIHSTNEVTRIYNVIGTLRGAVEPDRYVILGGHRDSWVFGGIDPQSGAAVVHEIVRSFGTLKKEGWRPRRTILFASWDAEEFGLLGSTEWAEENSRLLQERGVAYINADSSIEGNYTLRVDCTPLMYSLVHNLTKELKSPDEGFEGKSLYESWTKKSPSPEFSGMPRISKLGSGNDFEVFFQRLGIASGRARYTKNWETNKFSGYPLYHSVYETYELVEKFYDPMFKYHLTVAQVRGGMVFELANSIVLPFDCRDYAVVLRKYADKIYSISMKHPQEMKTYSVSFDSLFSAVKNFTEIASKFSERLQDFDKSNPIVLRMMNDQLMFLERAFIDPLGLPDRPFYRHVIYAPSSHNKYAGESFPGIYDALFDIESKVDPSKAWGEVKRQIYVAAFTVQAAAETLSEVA
T1 sequence (chain, as listed by the source): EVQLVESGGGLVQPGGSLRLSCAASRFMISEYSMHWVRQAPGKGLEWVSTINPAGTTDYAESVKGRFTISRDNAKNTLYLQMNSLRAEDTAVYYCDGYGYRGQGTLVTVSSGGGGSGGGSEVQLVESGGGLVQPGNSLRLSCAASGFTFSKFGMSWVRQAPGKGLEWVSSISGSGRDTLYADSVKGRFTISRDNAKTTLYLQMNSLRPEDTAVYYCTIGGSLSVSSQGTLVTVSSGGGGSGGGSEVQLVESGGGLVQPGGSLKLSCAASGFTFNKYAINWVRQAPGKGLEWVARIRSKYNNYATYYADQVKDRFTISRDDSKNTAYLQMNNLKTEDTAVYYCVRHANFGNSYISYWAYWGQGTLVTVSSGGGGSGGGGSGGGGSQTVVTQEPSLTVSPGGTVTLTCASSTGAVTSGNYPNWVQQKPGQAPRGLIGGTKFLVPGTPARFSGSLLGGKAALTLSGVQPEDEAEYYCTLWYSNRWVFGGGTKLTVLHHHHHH

B1: CSA (other, cynomolgus, UniProt A2V9Z4 25-608, looked up)
chain: DTHKSEVAHRFKDLGEEHFKGLVLVAFSQYLQQCPFEEHVKLVNEVTEFAKTCVADESAENCDKSLHTLFGDKLCTVATLRETYGEMADCCAKQEPERNECFLQHKDDNPNLPPLVRPEVDVMCTAFHDNEATFLKKYLYEVARRHPYFYAPELLFFAARYKAAFAECCQAADKAACLLPKLDELRDEGKASSAKQRLKCASLQKFGDRAFKAWAVARLSQKFPKAEFAEVSKLVTDLTKVHTECCHGDLLECADDRADLAKYMCENQDSISSKLKECCDKPLLEKSHCLAEVENDEMPADLPSLAADYVESKDVCKNYAEAKDVFLGMFLYEYARRHPDYSVMLLLRLAKAYEATLEKCCAAADPHECYAKVFDEFQPLVEEPQNLVKQNCELFEQLGEYKFQNALLVRYTKKVPQVSTPTLVEVSRNLGKVGAKCCKLPEAKRMPCAEDYLSVVLNRLCVLHEKTPVSEKVTKCCTESLVNRRPCFSALELDEAYVPKAFNAETFTFHADMCTLSEKEKQVKKQTALVELVKHKPKATKEQLKGVMDNFAAFVEKCCKADDKEACFAEEGPKFVAASQAALA
notes: also called cynomolgus serum albumin
Kd (PSMA-TriTAC (p8)-C362 [1]): 6.6 nM
Kd (PSMA TriTAC (HDS)-C363 [2]): 8.4 nM
Kd (PSMA TriTAC (HTS)-C364 [3]): 8.6 nM
Kd [4]: 9.7 nM
Kd [5]: 25.4 nM

B5: Anti-PSMA wt sdAb.6his (VHH)
VHH: EVQLVESGGGLVQPGGSLTLSCAASRFMISEYSMHWVRQAPGKGLEWVSTINPAGTTDYAESVKGRFTISRDNAKNTLYLQMNSLKPEDTAVYYCDGYGYRGQGTQVTVSS
notes: Tested as supernatant of Expi293 cells; also called parental sdAb; parental anti-PSMA single domain antibody
Kd (hFc · flag · hPSMA): 15 nM
koff (hFc · flag · hPSMA): 0.0132 s⁻¹
kon (hFc · flag · hPSMA): 877000 M⁻¹ s⁻¹

B6: anti-PSMA T56Q sdAb.6his (VHH)
VHH: B5 VHH with T56Q
Kd (hFc · flag · hPSMA): 5.6 nM
koff (hFc · flag · hPSMA): 0.00461 s⁻¹
kon (hFc · flag · hPSMA): 822000 M⁻¹ s⁻¹

B7: anti-PSMA G55K sdAb.6his (VHH)
VHH: B5 VHH with G55K
Kd (hFc · flag · hPSMA): 4.5 nM
koff (hFc · flag · hPSMA): 0.00248 s⁻¹
kon (hFc · flag · hPSMA): 556000 M⁻¹ s⁻¹

B8: anti-PSMA S33H G97SsdAb.6his (VHH)
VHH: B5 VHH with S33H, G97S
Kd (hFc · flag · hPSMA): 0.21 nM
koff (hFc · flag · hPSMA): 0.000197 s⁻¹
kon (hFc · flag · hPSMA): 936000 M⁻¹ s⁻¹

B9: anti-PSMA E31P sdAb.6his (VHH)
VHH: B5 VHH with E31P
Kd (hFc · flag · hPSMA): 9.5 nM
koff (hFc · flag · hPSMA): 0.00366 s⁻¹
kon (hFc · flag · hPSMA): 383000 M⁻¹ s⁻¹

B10: anti-PSMA S33H T50D G97SsdAb.6his (VHH)
VHH: B5 VHH with S33H, T50D, G97S
Kd (hFc · flag · hPSMA): 6.7 nM
koff (hFc · flag · hPSMA): 0.00538 s⁻¹
kon (hFc · flag · hPSMA): 800000 M⁻¹ s⁻¹

Continued, values first:

Kd (PSMA TriTAC (HDS)-C363 [6]): 540 nM
Kd (PSMA TriTAC (HTS)-C364 [7]): 663 nM
B2: cynomolgus PSMA (other)
chain: KSSSEATNITPKHNMKAFLDELKAENIKKFLHNFTQIPHLAGTEQNFQLAKQIQSQWKEFGLDSVELTHYDVLLSYPNKTHPNYISIINEDGNEIFNTSLFEPPPAGYENVSDIVPPFSAFSPQGMPEGDLVYVNYARTEDFFKLERDMKINCSGKIVIARYGKVFRGNKVKNAQLAGATGVILYSDPADYFAPGVKSYPDGWNLPGGGVQRGNILNLNGAGDPLTPGYPANEYAYRRGIAEAVGLPSIPVHPIGYYDAQKLLEKMGGSASPDSSWRGSLKVPYNVGPGFTGNFSTQKVKMHIHSTSEVTRIYNVIGTLRGAVEPDRYVILGGHRDSWVFGGIDPQSGAAVVHEIVRSFGTLKKEGWRPRRTILFASWDAEEFGLLGSTEWAEENSRLLQERGVAYINADSSIEGNYTLRVDCTPLMYSLVYNLTKELESPDEGFEGKSLYESWTKKSPSPEFSGMPRISKLGSGNDFEVFFQRLGIASGRARYTKNWETNKFSSYPLYHSVYETYELVEKFYDPMFKYHLTVAQVRGGMVFELANSVVLPFDCRDYAVVLRKYADKIYNISMKHPQEMKTYSVSFDSLFSAVKNFTEIASKFSERLRDFDKSNPILLRMMNDQLMFLERAFIDPLGLPDRPFYRHVIYAPSSHNKYAGESFPGIYDALFDIESKVDPSQAWGEVKRQISIATFTVQAAAETLSEVA
notes: the methods describe only the human PSMA-Fc format; also called cyno PSMA

Kd [8]: 5.8 nM
Kd [9]: 4.7 nM
Kd (PSMA-TriTAC (p8)-C362 [10]): 4.3 nM
Kd (PSMA TriTAC (HDS)-C363 [11]): 5.2 nM
Kd (PSMA TriTAC (HTS)-C364 [12]): 3.8 nM
B3: cynomolgus CD3 (receptor, UniProt Q95LI5 22-117, looked up)
chain: QDGNEEMGSITQTPYQVSISGTTVILTCSQHLGSEAQWQHNGKNKEDSGDRLFLPEFSEMEQSGYYVCYPRGSNPEDASHHLYLKARVCENCMEMD
notes: The methods describe only the human CD3-Flag-Fc format; also called cyno CD3e

Kd (PSMA-TriTAC (p8)-C362 [13]): 8.3 nM
Kd (PSMA TriTAC (HDS)-C363 [14]): 8 nM
Kd (PSMA TriTAC (HTS)-C364 [15]): 7.7 nM
Kd [16]: 7.4 nM
B4: human CD3-Flag-Fc protein (Fc fusion, UniProt P07766 23-126, looked up)
chain: DGNEEMGGITQTPYKVSISGTTVILTCPQYPGSEILWQHNDKNIGGDEDDKNIGSDEDHLSLKEFSELEQSGYYVCYPRGSKPEDANFYLYLRARVCENCMEMD
notes: also called CD3e; not shown: Flag tag
